Blank lines part the entries; values can stand above or below the molecule they belong to. Where a SMILES comes first, the peptide text is derived from it. Bridges are numbered along the chain shown (N, C = ends). Where no end group is shown, it is not given here.
Assays:
Aminopeptidase N (APN) = biological target: T1, Aminopeptidase N (APN) (Rattus norvegicus, UniProt P15684); experiment: Inhibition of APN aminopeptidase activity, increasing peptide concentrations; assay type: biochemical
T1 sequence (P15684 33-965 limits assumed): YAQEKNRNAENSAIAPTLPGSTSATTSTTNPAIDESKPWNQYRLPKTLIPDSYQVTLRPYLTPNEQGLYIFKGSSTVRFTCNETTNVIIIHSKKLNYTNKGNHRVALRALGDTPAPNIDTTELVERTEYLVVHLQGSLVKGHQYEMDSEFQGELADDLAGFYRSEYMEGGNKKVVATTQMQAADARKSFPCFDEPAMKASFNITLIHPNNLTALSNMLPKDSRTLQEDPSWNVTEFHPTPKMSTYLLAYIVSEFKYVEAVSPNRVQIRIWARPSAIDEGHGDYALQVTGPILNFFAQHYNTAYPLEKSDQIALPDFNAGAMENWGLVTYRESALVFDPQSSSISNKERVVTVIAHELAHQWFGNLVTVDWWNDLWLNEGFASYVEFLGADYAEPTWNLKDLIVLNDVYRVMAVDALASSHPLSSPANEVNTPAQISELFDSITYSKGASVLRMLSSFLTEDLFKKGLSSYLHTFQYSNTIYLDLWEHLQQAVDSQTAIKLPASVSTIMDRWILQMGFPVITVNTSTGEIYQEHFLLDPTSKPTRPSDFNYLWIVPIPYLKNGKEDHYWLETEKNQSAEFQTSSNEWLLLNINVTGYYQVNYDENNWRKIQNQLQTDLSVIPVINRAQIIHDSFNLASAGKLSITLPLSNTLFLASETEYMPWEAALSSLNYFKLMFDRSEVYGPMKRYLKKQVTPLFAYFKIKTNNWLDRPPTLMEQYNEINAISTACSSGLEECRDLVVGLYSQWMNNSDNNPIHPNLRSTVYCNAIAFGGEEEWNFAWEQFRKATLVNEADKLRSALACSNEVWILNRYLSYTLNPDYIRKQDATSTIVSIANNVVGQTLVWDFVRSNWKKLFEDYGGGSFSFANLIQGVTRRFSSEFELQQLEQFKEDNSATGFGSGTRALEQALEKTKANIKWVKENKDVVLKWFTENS

[1] = tested on: APN from Aeromonas proteolytica; conditions: ref [35]; cited from earlier work
[2] = biological target: the molecule itself; experiment: analytical ultracentrifugation
CPNGRC = biological target: T2, CPNGRC (disulfide 1-6 (inferred)); experiment: enzyme inhibition assay
T2 chain: CPNGRC

CNGRC = biological target: T3, CNGRC (disulfide 1-5 (inferred)); experiment: enzyme inhibition assay
T3 chain: CNGRC

APN = biological target: T4, APN (Rattus norvegicus, UniProt P15684); experiment: Analytical ultracentrifugation, sedimentation equilibrium; assay type: binding; conditions: 3 nM enzyme
T4 sequence (P15684 33-965 limits assumed): T1 sequence (P15684 33-965 limits assumed)

Molecule: CC(C)C[C@H](NC(=O)[C@@H](O)[C@H](N)Cc1ccccc1)C(=O)O [bestatin]
affinity for APN from Aeromonas proteolytica [1]: slow binding nanomolar affinity

B2: APN: Aminopeptidase N isolated from rat renal brush-border membranes, treated with papain to solubilize the extracellular domains (protein, UniProt P15684 33-965, looked up)
extracellular domain: T1 sequence (P15684 33-965 limits assumed)
modifications: extracellular domain papain-solubilized
APN in the dimeric state at assay concentration (APN): less than 0.4%

More lines, main results first:

IC50 (Aminopeptidase N (APN)): 10 µM
Molecule: N=C(N)NCCC[C@@H]1NC(=O)CNC(=O)[C@H](CC(N)=O)NC(=O)[C@@H]2CCCN2C(=O)[C@@H](N)CSSC[C@@H](C(=O)O)NC1=O [CPNGRC] (H-CPNGRC-OH; disulfide 1-6)

IC50 (CPNGRC): ~10 µM
IC50 (CNGRC): ~300 µM
B1: Aminopeptidase N (APN/CD13) ECD (protein)
chain: T1 sequence (P15684 33-965 limits assumed)
Kd [2]: 1.6 µM

Source: paper PMC2890305 (Chemical biology & drug design, 2010)
